Consider one substance from paper PMC4862330.

The target in the assay is F-actin (polymerized rabbit skeletal muscle G-actin) (rabbit) (UniProt P68135). The experiment in a line: co-sedimentation.

The substance “talin ABS2 6× mutant (K922E/Q923E/Q930E/K1500E/R1510E/K1522E) (from UniProt P26039 1-2541) (domain or fragment)” gave a percent decrease in F-actin binding compared with wild type of 60%.
